From paper PMC6347702

Columns and labels:
[1] = substrate: OC[C@H]1OC(O)[C@H](O)[C@@H](O)[C@@H]1O; test: radiochemical kinase assay, recombinant enzyme; type: biochemical, Homo sapiens; details: ADP-Mg2+
[2] = substrate: OC[C@H]1OC(O)[C@H](O)[C@@H](O)[C@@H]1O; test: spectrophotometric kinase assay, recombinant enzyme; type: biochemical, Homo sapiens; details: ATP-Mg2+

B1: ADP-glucokinase (∆50-hADPG) (Homo sapiens) (protein)
chain: VSPEGRLAAAWDALIVRPVRRWRRVAVGVNACVDVVLSGVKLLQALGLSPGNGKDHSILHSRNDLEEAFIHFMGKGAAAERFFSDKETFHDIAQVASEFPGAQHYVGGNAALIGQKFAANSDLKVLLCGPVGPKLHELLDDNVFVPPESLQEVDEFHLILEYQAGEEWGQLKAPHANRFIFSHDLSNGAMNMLEVFVSSLEEFQPDLVVLSGLHMMEGQSKELQRKRLLEVVTSISDIPTGIPVHLELASMTNRELMSSIVHQQVFPAVTSLGLNEQELLFLTQSASGPHSSLSSWNGVPDVGMVSDILFWILKEHGRSKSRASDLTRIHFHTLVYHILATVDGHWANQLAAVAAGARVAGTQACATETIDTSRVSLRAPQEFMTSHSEAGSRIVLNPNKPVVEWHREGISFHFTPVLVCKDPIRTVGLGDAISAEGLFYSEVHPHY
With B1 as the protein, how does the Km [1] read?
Its Km is 12.3 ± 1.3 µM.

B2: hexokinase 3 (hHK3) (Homo sapiens) (protein)
chain: MDSIGSSGLRQGEETLSCSEEGLPGPSDSSELVQECLQQFKVTRAQLQQIQASLLGSMEQALRGQASPAPAVRMLPTYVGSTPHGTEQGDFVVLELGATGASLRVLWVTLTGIEGHRVEPRSQEFVIPQEVMLGAGQQLFDFAAHCLSEFLDAQPVNKQGLQLGFSFSFPCHQTGLDRSTLISWTKGFRCSGVEGQDVVQLLRDAIRRQGAYNIDVVAVVNDTVGTMMGCEPGVRPCEVGLVVDTGTNACYMEEARHVAVLDEDRGRVCVSVEWGSFSDDGALGPVLTTFDHTLDHESLNPGAQRFEKMIGGLYLGELVRLVLAHLARCGVLFGGCTSPALLSQGSILLEHVAEMEDPSTGAARVHAILQDLGLSPGASDVELVQHVCAAVCTRAAQLCAAALAAVLSCLQHSREQQTLQVAVATGGRVCERHPRFCSVLQGTVMLLAPECDVSLIPSVDGGGRGVAMVTAVAARLAAHRRLLEETLAPFRLNHDQLAAVQAQMRKAMAKGLRGEASSLRMLPTFVRATPDGSERGDFLALDLGGTNFRVLLVRVTTGVQITSEIYSIPETVAQGSGQQLFDHIVDCIVDFQQKQGLSGQSLPLGFTFSFPCRQLGLDQGILLNWTKGFKASDCEGQDVVSLLREAITRRQAVELNVVAIVNDTVGTMMSCGYEDPRCEIGLIVGTGTNACYMEELRNVAGVPGDSGRMCINMEWGAFGDDGSLAMLSTRFDASVDQASINPGKQRFEKMISGMYLGEIVRHILLHLTSLGVLFRGQQIQRLQTRDIFKTKFLSEIESDSLALRQVRAILEDLGLPLTSDDALMVLEVCQAVSQRAAQLCGAGVAAVVEKIRENRGLEELAVSVGVDGTLYKLHPRFSSLVAATVRELAPRCVVTFLQSEDGSGKGAALVTAVACRLAQLTRV
For B2, which Km [2] is on record?
Its Km is 12.2 ± 1 µM.

B3: hexokinase 2 (∆28-hHK2) (Homo sapiens) (protein)
chain: MRLSDETLLEISKRFRKEMEKGLGATTHPTAAVKMLPTFVRSTPDGTEHGEFLALDLGGTNFRVLWVKVTDNGLQKVEMENQIYAIPEDIMRGSGTQLFDHIAECLANFMDKLQIKDKKLPLGFTFSFPCHQTKLDESFLVSWTKGFKSSGVEGRDVVALIRKAIQRRGDFDIDIVAVVNDTVGTMMTCGYDDHNCEIGLIVGTGSNACYMEEMRHIDMVEGDEGRMCINMEWGAFGDDGSLNDIRTEFDQEIDMGSLNPGKQLFEKMISGMYMGELVRLILVKMAKEELLFGGKLSPELLNTGRFETKDISDIEGEKDGIRKAREVLMRLGLDPTQEDCVATHRICQIVSTRSASLCAATLAAVLQRIKENKGEERLRSTIGVDGSVYKKHPHFAKRLHKTVRRLVPGCDVRFLRSEDGSGKGAAMVTAVAYRLADQHRARQKTLEHLQLSHDQLLEVKRRMKVEMERGLSKETHASAPVKMLPTYVCATPDGTEKGDFLALDLGGTNFRVLLVRVRNGKWGGVEMHNKIYAIPQEVMHGTGDELFDHIVQCIADFLEYMGMKGVSLPLGFTFSFPCQQNSLDESILLKWTKGFKASGCEGEDVVTLLKEAIHRREEFDLDVVAVVNDTVGTMMTCGFEDPHCEVGLIVGTGSNACYMEEMRNVELVEGEEGRMCVNMEWGAFGDNGCLDDFRTEFDVAVDELSLNPGKQRFEKMISGMYLGEIVRNILIDFTKRGLLFRGRISERLKTRGIFETKFLSQIESDCLALLQVRAILQHLGLESTCDDSIIVKEVCTVVARRAAQLCGAGMAAVVDRIRENRGLDALKVTVGVDGTLYKLHPHFAKVMHETVKDLAPKCDVSFLQSEDGSGKGAALITAVACRIREAGQR
B3 was tested. Which Vmax [2] did it give?
The Vmax was 35.4 µmol/min/mg.
